Test results reported in patent US20170226175A1 (HANMI PHARM, published 2017).

Legend:
Experiment in all cases: SPR (BIACORE 3000), hGLP-1R/GST amine-coupled to CM5 chip, 1:1 Langmuir fit
[1] = target: imidazoacetyl-exendin-4 (CA-exendin-4)
Description: (§1) The binding activity of the GLP-1 receptor and the insulinotropic peptide derivative with a modified N-terminal charge were measured using a surface plasmon resonance (SPR) apparatus (BIACORE 3000, GE Healthcare).
(§2) The GLP-1 receptor was expressed from CHO-DG44 cells in hGLP-1R/GST form. The expressed hGLP-1R/GST was immobilized to a CM5 chip by amine coupling. To the hGLP-1R/GST-immobilized CM5 chip, the insulinotropic peptide derivatives with a modified N-terminal charge were diluted by concentration and then added to determine the binding activity with the GLP-1 receptor.

[2] = target: Native exendin-4 (exenatide: BYETTA)
Description: as §1, §2

[3] = target: beta-hydroxy imidazopropionyl-exendin-4 (HY-exendin-4)
Description: as §1, §2

[4] = target: DA-exendin-4-propyl-amide
Description: as §1, §2

[5] = target: desamino-histidyl-exendin-4 (DA-exendin-4)
Description: as §1, §2

B1: hGLP-1R/GST (receptor)
chain: RPQGATVSLWETVQKWREYRRQCQRSLTEDPPPATDLFCNRTFDEYACWPDGEPGSFVNVSCPWYLPWASSVPQGHVYRFCTAEGLWLQKDNSSLPWRDLSECEESKRGERSSPEEQLLFLY
notes: Expressed from CHO-DG44 cells and immobilized on a CM5 chip by amine coupling; also called GLP-1 receptor; GLP-1 receptor in hGLP-1R/GST form; not shown: GST (glutathione S-transferase) fusion partner
Kd [1]: 26.3 nM | koff [1]: 0.00315 s⁻¹ | kon [1]: 120000 M⁻¹ s⁻¹ | Kd [2]: 1.4 nM | koff [2]: 0.000526 s⁻¹ | kon [2]: 370000 M⁻¹ s⁻¹ | Kd [3]: 42.7 nM | koff [3]: 0.00383 s⁻¹ | kon [3]: 90000 M⁻¹ s⁻¹ | Kd [4]: 32.6 nM | koff [4]: 0.00335 s⁻¹ | kon [4]: 104000 M⁻¹ s⁻¹ | Kd [5]: 32.2 nM | koff [5]: 0.00365 s⁻¹ | kon [5]: 113000 M⁻¹ s⁻¹
